# T1: recombinant extracellular domain of IFNAR1 (ECD-IFNAR1) (UniProt P17181 28-436, RED-tris-NTA 2nd Generation dye on the His-tag (MST only))
# T1 construct: signal peptide in the construct; extracellular domain of IFNAR1, residues 1-436 as printed; the secreted product lacks the signal peptide; source: bought: Sino Biological (13222-H08H)
# T1 sequence: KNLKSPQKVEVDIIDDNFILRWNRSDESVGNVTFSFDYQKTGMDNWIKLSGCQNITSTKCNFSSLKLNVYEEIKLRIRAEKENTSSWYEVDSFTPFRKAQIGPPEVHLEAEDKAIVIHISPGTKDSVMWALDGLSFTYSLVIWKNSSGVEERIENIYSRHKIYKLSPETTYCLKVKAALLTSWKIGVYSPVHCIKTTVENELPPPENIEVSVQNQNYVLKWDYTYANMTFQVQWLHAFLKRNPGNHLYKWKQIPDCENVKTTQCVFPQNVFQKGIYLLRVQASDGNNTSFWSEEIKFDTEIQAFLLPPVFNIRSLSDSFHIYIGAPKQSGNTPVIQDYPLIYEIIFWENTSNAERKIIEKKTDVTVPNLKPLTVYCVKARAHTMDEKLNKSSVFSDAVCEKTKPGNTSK
# B1: RAPD1P1, peptide from the N-terminal of LRPAP1 (residues 35-53) (peptide)
# peptide: YSREKNQPKPSPKRESGEE
# notes: LRPAP1 residues 35-53; also called PAPD1P1; source: synthetic peptide (GenScript Biotech, purity 95%)
# Molecular target: T1, recombinant extracellular domain of …
# Assay: MST; His-tagged ECD-IFNAR1 labelled with RED-tris-NTA 2nd Generation dye for 30 min, mixed with serially diluted LRPAP1 peptides; Monolith NT.115 capillaries; S/N above 5.0 taken as valid binding
# Conditions: both partners purified
binder,measurement,value
B1,Kd,0.0113 µM

# From PMC10518340 (Signal Transduction and Targeted Therapy, 2023)
